Results on one substance are retold here after paper doi:10.1101/2025.06.14.659724.

In this assay the target is PSR2-PDF1-Cα heterotrimer (not stated | A. thaliana | human) (UniProt E0W4V5). The assay can be described thus: cryo-EM structure.

“PSR2-PDF1-Cα heterotrimer (from UniProt E0W4V5;P67775) (complex)”: the stoichiometry N (in general, the number of molecules, sites or subunits per partner or assembly) came out at 2.
